Legend:
[1] = biological target: Tau aggregates (Homo sapiens, UniProt P10636); assay: hetero-dimeric tandem capping peptide screen, Tau biosensor cell line; type: cell-based; settings: 625 nM capping peptide, 50 nM Tau seeds, 24 hours
[2] = biological target: T1, Sup35-NM aggregates (Saccharomyces cerevisiae, UniProt P05453); assay: hetero-dimeric tandem capping peptide screen, NM biosensor cell line; type: cell-based; settings: 625 nM capping peptide, 50 nM NM seeds, 24 hours
T1 sequence (P05453 1-253 limits assumed): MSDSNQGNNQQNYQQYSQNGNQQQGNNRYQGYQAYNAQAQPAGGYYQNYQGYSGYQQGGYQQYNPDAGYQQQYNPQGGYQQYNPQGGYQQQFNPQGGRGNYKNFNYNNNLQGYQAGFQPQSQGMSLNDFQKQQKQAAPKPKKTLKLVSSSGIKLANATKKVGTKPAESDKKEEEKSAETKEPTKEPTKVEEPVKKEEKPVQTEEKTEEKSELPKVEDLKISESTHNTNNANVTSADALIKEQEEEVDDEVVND

[3] = biological target: T2, Aβ fibrils (Homo sapiens, UniProt P05067); assay: in vitro Aβ seeding aggregation assay (Th-T); type: biochemical; settings: fibrils 10 μM preincubated with 50 μM capping peptide approx. 4 hours; 10% added to 10 μM monomeric Aβ
T2 construct: mixed with preformed, sonicated Aβ aggregates (2 μM)
Procedure: Capping peptides from Table 6 were freshly dissolved in DMSO (stock concentration 1 mM) and filtered before the assay. 1 μL peptide capping solution was mixed with 19 μL preformed, sonicated Aβ fibrils (stock concentration 10 μM). As such, this mixture contained 10 μM Aβ fibrils and 50 μM capping peptide and was incubated for approx. 4 hours. Next, freshly dissolved monomeric Aβ was prepared by separation on a column. This monomeric Aβ (final concentration 10 μM) was mixed with 10% of the Aβ fibrils-peptide mixture and Th-T was added to monitor aggregation.

[4] = biological target: T3, Aβ aggregates (Homo sapiens, UniProt P05067); assay: Aβ biosensor screening assay; type: cell-based; settings: for capping activity of single capping sequence across all hetero-tandem peptides: analysis of all tandems containing the single sequence (FIG. 22); for relative number of cells positive for induced Aβ aggregation (seeding capacity of Aβ seeds): 100 nM Aβ aggregates on cells, concentration range of capping peptide
T3 construct: mixed with preformed, sonicated Aβ aggregates (2 μM)
Procedure: Hetero-tandem capping peptides depicted in Table 5 were dissolved in DMSO, filtered and mixed with preformed, sonicated Aβ aggregates (2 μM). This mixture was incubated for approx. 4 hours and transfected into Aβ biosensor cells. Aβ biosensor cells stably express soluble Aβ-mCherry and Aβ aggregation can be induced by transfecting preformed Aβ aggregates in these cells (FIG. 17). The final concentration of Aβ aggregates on the cells is 100 nM and a concentration range of capping peptides was used. In other words, the condition in which no seeds are added is shown as 0, while the condition in which 100 nM Aβ aggregates are added (without capping peptides) is shown as 1.

[5] = biological target: T4, preformed tau aggregates (Homo sapiens, UniProt P10636); assay: tau biosensor seeding assay; type: cell-based; settings: 20 hours after transfection; for fraction of cells with green spots (induced tau aggregation) / fraction of cells with red spots (exogenous preformed tau aggregates): single concentration 500 nM on cells, 200 nM preformed tau aggregates
Procedure: The 33 different non-natural molecules (with a final concentration of 10 μM) were mixed with preformed (sonicated) tau aggregates (with a final concentration of 4 μM). The preformed tau aggregates are labeled with a far-red atto-633 dye to monitor the efficiency of cellular uptake and degradation. After an incubation of 6 hours the resulting non-natural molecule—tau aggregate mixture was transfected in tau biosensor cells (described in Holmes et al (2014) Proc Natl Acad Sci USA. 111(41): E4376-E4385). The tau biosensor cell line is a monoclonal FRET biosensor HEK293T cell line stably expressing both the tau repeat domain (RD) fused to the fluorescent protein CFP and the tau repeat protein fused to the fluorescent protein YFP. Without the addition of preformed tau seeds, the biosensor cells stably express diffuse tau (soluble). However, exposure to exogenous preformed tau aggregates induces tau aggregation, generating a FRET signal with the CFP-YFP pair, intensifying the fluorescent signal in the tau inclusions. The FRET signal allows to distinguish the tau aggregate formation from the monomeric background. The use of phospholipids (e.g. lipofectamine—Source: Thermofisher) for the transfection of exogenous tau aggregates maximizes the aggregate inducing capacity.
The final peptide concentration of the non-natural molecules applied on the cells is 500 nM and the final concentration of preformed tau aggregates is 200 nM. 20 hours after transfection cells were fixed and two readouts were used to quantify the activities of the non-natural molecules: • determination of the fraction of cells with green spots: these are the cells that have induced tau aggregation. • determination of the fraction of cells with red spots: these are the cells that are positive for preformed tau aggregates.
In this example non-natural molecules of the invention were generated based on the sequences of capping peptides CAP1_TR and HET (sequences depicted in column 2 in Table 2). A tau biosensor seeding assay was performed with a concentration range of peptides. Thus, the assay is the same as described in example 2 but now a range of concentrations of capping peptides and non-natural molecules comprising the capping peptides were used to incubate with preformed tau aggregates. FIGS. 6 and 7 depict the final concentration of the peptides and derived non-natural molecules applied on the cells (see FIGS. 6 and 7).

[6] = biological target: T4, preformed tau aggregates; assay: Microscale Thermophoresis (MST) with preformed tau aggregates; type: binding
Procedure: To measure the affinity of the capping peptides, and non-natural molecules derived thereof, with full length tau, we performed Microscale Thermophoresis (MST, Monolith NT.Automated) experiments. Briefly, atto-633-labeled tau monomers or atto-633-labeled preformed tau aggregates were mixed with a concentration range of capping peptides, and non-natural molecules derived thereof, and MST measurement were performed.

[7] = biological target: T4, preformed tau aggregates; assay: spreading of tau pathology in hTau[P301L] mice; type: in vivo; settings: tau aggregates pretreated 6 hours, injected in hippocampus of hTau[P301L] mice; nine weeks; vs vehicle
Procedure: In an alternative transgenic murine model preformed tau aggregates are pretreated with the non-natural molecule (SEQ ID NO: 22) and after an incubation of 6 hours, this preformed mixture is injected into the hippocampus of young hTau^[P301L] mice (see Kent BA et al (2017) Brain Behay. 8(1) e00896), which haven't developed any tau pathology yet. Nine weeks after injection mice are sacrificed. Immunohistochemical (IHC) quantification of AT8-positive inclusions in the ipsilateral (injection site) and contralateral hippocampus (opposite site) is conducted. Preformed tau aggregates pretreated with a buffer serve as a control vehicle. We observe that the level of tau pathology spread to the contralateral hippocampus is reduced when the non-natural molecule depicted in SEQ ID NO: 22 is applied as compared to the vehicle.

Sequence of Tau aggregates (P10636 1-441 isoform P10636-8): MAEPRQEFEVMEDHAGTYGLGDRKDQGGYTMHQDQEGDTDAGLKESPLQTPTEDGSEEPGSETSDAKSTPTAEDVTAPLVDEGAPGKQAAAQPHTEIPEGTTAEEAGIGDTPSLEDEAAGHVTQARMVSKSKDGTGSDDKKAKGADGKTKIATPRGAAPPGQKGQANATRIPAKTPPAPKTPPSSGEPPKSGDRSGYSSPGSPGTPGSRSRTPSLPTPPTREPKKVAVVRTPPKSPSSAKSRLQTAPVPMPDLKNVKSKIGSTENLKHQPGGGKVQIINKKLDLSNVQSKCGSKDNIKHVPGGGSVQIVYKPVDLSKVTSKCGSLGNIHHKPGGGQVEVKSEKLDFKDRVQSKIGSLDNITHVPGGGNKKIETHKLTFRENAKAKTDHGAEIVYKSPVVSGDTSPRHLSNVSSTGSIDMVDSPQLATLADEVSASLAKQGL
T4 sequence (P10636 1-441 isoform P10636-8): as above
T2 sequence (P05067 672-713 limits assumed): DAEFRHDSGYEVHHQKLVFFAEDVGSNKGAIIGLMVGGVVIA
T3 sequence (P05067 672-713 limits assumed): as above

EQIINKGSFQIVYK (Capping peptide) [CAP_4D]
fraction of cells with induced aggregates, normalized [1]: most performant peptides
specificity for tau aggregation (a-specific effects in Sup35-NM biosensor line) [2]: specific for inhibiting tau aggregation

GWVVIAGSKLKFFA (Capping peptide) [AbCAP19]
seeding capacity of preformed, sonicated Aβ fibrils (Th-T aggregation) [3]: clear effect on the seeding capacity

KLWFFA (Capping peptide)
capping activity of single capping sequence across all hetero-tandem peptides [4]: score well at the highest concentrations

MVGGPVGSKLKFFA (Capping peptide) [AbCap 14]
relative number of cells positive for induced Aβ aggregation (seeding capacity of Aβ seeds) [4]: effect at the highest concentrations

MVGGVKGSKWVFFP (Capping peptide) [AbCap 11]
relative number of cells positive for induced Aβ aggregation (seeding capacity of Aβ seeds) [4]: effect at the highest concentrations

MVWGVV (Capping peptide)
capping activity of single capping sequence across all hetero-tandem peptides [4]: score well at the highest concentrations

MVWGVVGSKLKFFA (Capping peptide) [AbCAP_2]
seeding capacity of preformed, sonicated Aβ fibrils (Th-T aggregation) [3]: clear effect on the seeding capacity

MVWGVVGSKLWFFA (Capping peptide) [AbCAP3]
seeding capacity of preformed, sonicated Aβ fibrils (Th-T aggregation) [3]: clear effect on the seeding capacity

MVWGVVGSKWVFFA (Capping peptide) [AbCap 4]
relative number of cells positive for induced Aβ aggregation (seeding capacity of Aβ seeds) [4]: concentration-dependent effect
seeding capacity of preformed, sonicated Aβ fibrils (Th-T aggregation) [3]: clear effect on the seeding capacity

RWQIVYKEGSRWQIVYKR [CAP1_TR]
fraction of cells with red spots (exogenous tau aggregates; tau aggregate degradation) ([5]; concentration range of peptide, tau aggregates pre-treated 6 hours): slight reduction in cells positive for red spots in the highest concentration

VQWINKGSVQMVYK (Capping peptide) [CAP_1E]
fraction of cells with induced aggregates, normalized [1]: most performant peptides
specificity for tau aggregation (a-specific effects in Sup35-NM biosensor line) [2]: specific for inhibiting tau aggregation

VQWINKGSWQIVYK (Capping peptide) [CAP_1A]
fraction of cells with induced aggregates, normalized [1]: most performant peptides
specificity for tau aggregation (a-specific effects in Sup35-NM biosensor line) [2]: specific for inhibiting tau aggregation

WQIVYKGSVWMINK [HET]
fraction of cells with green spots (induced tau aggregation) [5]: reduced tau aggregation
fraction of cells with red spots (exogenous preformed tau aggregates) [5]: reduction in exogenous preformed tau aggregates
affinity for tau aggregates compared to tau monomers (MST) ([6]; aggregates versus monomers): higher affinity for tau aggregates compared to tau-monomers
affinity for tau aggregates (MST) ([6]; atto-633-labeled preformed tau aggregates, concentration range): measured affinities are significantly higher compared to CAP1_TR variants

WQIVYKGSVWMINKGSGSKFERQKILDQRFFE (HET_CMA1) [HET-CMA1]
fraction of cells with green spots (induced tau aggregation) [5]: reduced tau aggregation
fraction of cells with red spots (exogenous preformed tau aggregates) [5]: reduction in exogenous preformed tau aggregates

WQIVYKGSVWMINKGSGSNLLRLTGW (HET_JAV) [HET-JAV]
fraction of cells with green spots (induced tau aggregation) [5]: reduced tau aggregation
fraction of cells with red spots (exogenous preformed tau aggregates) [5]: reduction in exogenous preformed tau aggregates
level of tau pathology spread to the contralateral hippocampus (AT8-positive inclusions, IHC) [7]: reduced

WQIVYKGSVWMINKGSGSVKKDQGSKFERQ (HET_CMA2) [HET-CMA2]
fraction of cells with green spots (induced tau aggregation) [5]: reduced tau aggregation
fraction of cells with red spots (exogenous preformed tau aggregates) [5]: reduction in exogenous preformed tau aggregates
